This data set is described as follows: background-corrected fluorescence of 3'-dye-labeled ssDNA relative to brightest sequence (3'-GCGCG) (fraction); higher = brighter dye fluorescence (less quenching). The essentials: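 Light-directed phosphoramidite synthesis on glass slides produced single-stranded DNA carrying a 3' Cy3 or Cy5 dye next to each of 1024 permuted pentamers. After a 2 h acetonitrile wash at r.t., arrays were scanned at 532 or 635 nm both before and after overnight deprotection in ethylenediamine/ethanol. Every value is the mean of 10 features per array over at least 3 syntheses. Fluorescence had unlabeled-oligo background subtracted and was scaled to the brightest sequence.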

± gives the standard error.

“TTTTTTCAGCATGCTGATGATTTTTTTTTTTTTTTGTACC [CCATG]”: the background-corrected fluorescence is, setting by setting: (dye: Cy3 (3' terminal)) 0.434 ± 0.028; (dye: Cy5 (3' terminal)) 0.311 ± 0.017.

For “TTTTTTCAGCATGCTGATGCTTTTTTTTTTTTTTTGTACA [ACATG]”, the background-corrected fluorescence reads like this: (dye: Cy3 (3' terminal)) 0.528 ± 0.0051; (dye: Cy5 (3' terminal)) 0.399 ± 0.019.

Consider “TTTTTTCAGCATGCTGCGCATTTTTTTTTTTTTTTGTAAT [TAATG]”, for which the background-corrected fluorescence (dye: Cy3 (3' terminal)) is 0.531 ± 0.019 and the background-corrected fluorescence (dye: Cy5 (3' terminal)) was found to be 0.435 ± 0.043.

For the sequence “TTTTTTCAGCATGCTGCTCATTTTTTTTTTTTTTTGTAAG [GAATG]”, the background-corrected fluorescence runs as follows: (dye: Cy3 (3' terminal)) 0.582 ± 0.038; (dye: Cy5 (3' terminal)) 0.462 ± 0.069.

Take “TTTTTTCAGCATGCTGCTGATTTTTTTTTTTTTTTGTAAC [CAATG]”: the background-corrected fluorescence is, setting by setting: (dye: Cy3 (3' terminal)) 0.441 ± 0.025; (dye: Cy5 (3' terminal)) 0.364 ± 0.026.

In the case of “TTTTTTCAGCATGCTGCTGCTTTTTTTTTTTTTTTGTAAA [AAATG]”, the background-corrected fluorescence is, setting by setting: (dye: Cy3 (3' terminal)) 0.618 ± 0.014; (dye: Cy5 (3' terminal)) 0.513 ± 0.028.

In the case of “TTTTTTCATCAGCAGCAGCATTTTTTTTTTTTTTTGGTTT”, the background-corrected fluorescence by setting is: (dye: Cy3 (3' terminal)) 0.536 ± 0.02; (dye: Cy5 (3' terminal)) 0.402 ± 0.045.

Take “TTTTTTCATCAGCAGCATCATTTTTTTTTTTTTTTGGTTG [GTTGG]”: the background-corrected fluorescence reads like this: (dye: Cy3 (3' terminal)) 0.524 ± 0.02; (dye: Cy5 (3' terminal)) 0.392 ± 0.022.

For the sequence “TTTTTTCATCAGCAGCATGATTTTTTTTTTTTTTTGGTTC [CTTGG]”, the background-corrected fluorescence amounted to 0.414 ± 0.026 (dye: Cy3 (3' terminal)) and 0.31 ± 0.025 (dye: Cy5 (3' terminal)).

For “TTTTTTCATCAGCAGCATGCTTTTTTTTTTTTTTTGGTTA [ATTGG]”, the background-corrected fluorescence (dye: Cy3 (3' terminal)) was found to be 0.53 ± 0.015 and the background-corrected fluorescence (dye: Cy5 (3' terminal)) was 0.446 ± 0.071.

On to “TTTTTTCATCAGCATCAGCATTTTTTTTTTTTTTTGGTGT [TGTGG]”, for which the background-corrected fluorescence by setting is: (dye: Cy3 (3' terminal)) 0.663 ± 0.02; (dye: Cy5 (3' terminal)) 0.511 ± 0.037.

In the case of “TTTTTTCATCAGCATCATCATTTTTTTTTTTTTTTGGTGG”, the background-corrected fluorescence by setting is: (dye: Cy3 (3' terminal)) 0.629 ± 0.028; (dye: Cy5 (3' terminal)) 0.483 ± 0.055.

As to “TTTTTTCATCAGCATCATGATTTTTTTTTTTTTTTGGTGC [CGTGG]”, the background-corrected fluorescence is, setting by setting: (dye: Cy3 (3' terminal)) 0.522 ± 0.0057; (dye: Cy5 (3' terminal)) 0.419 ± 0.027.

In the case of “TTTTTTCATCAGCATCATGCTTTTTTTTTTTTTTTGGTGA [AGTGG]”, the background-corrected fluorescence is, setting by setting: (dye: Cy3 (3' terminal)) 0.627 ± 0.026; (dye: Cy5 (3' terminal)) 0.555 ± 0.04.

For “TTTTTTCATCAGCATGAGCATTTTTTTTTTTTTTTGGTCT [TCTGG]”, the background-corrected fluorescence (dye: Cy3 (3' terminal)) came to 0.486 ± 0.026 and the background-corrected fluorescence (dye: Cy5 (3' terminal)) worked out at 0.391 ± 0.031.

As to “TTTTTTCATCAGCATGATCATTTTTTTTTTTTTTTGGTCG [GCTGG]”, the background-corrected fluorescence reads like this: (dye: Cy3 (3' terminal)) 0.526 ± 0.035; (dye: Cy5 (3' terminal)) 0.405 ± 0.028.

As to “TTTTTTCATCAGCATGATGATTTTTTTTTTTTTTTGGTCC [CCTGG]”, the background-corrected fluorescence stood at 0.404 ± 0.0089 (dye: Cy3 (3' terminal)) and 0.317 ± 0.03 (dye: Cy5 (3' terminal)).

With “TTTTTTCATCAGCATGATGCTTTTTTTTTTTTTTTGGTCA [ACTGG]”, the background-corrected fluorescence is, setting by setting: (dye: Cy3 (3' terminal)) 0.506 ± 0.027; (dye: Cy5 (3' terminal)) 0.414 ± 0.02.

“TTTTTTCATCAGCATGCGCATTTTTTTTTTTTTTTGGTAT [TATGG]”: the background-corrected fluorescence (dye: Cy3 (3' terminal)) was 0.525 ± 0.017 and the background-corrected fluorescence (dye: Cy5 (3' terminal)) turned out to be 0.411 ± 0.025.

For “TTTTTTCATCAGCATGCTCATTTTTTTTTTTTTTTGGTAG [GATGG]”, the background-corrected fluorescence came out at 0.541 ± 0.021 (dye: Cy3 (3' terminal)) and 0.431 ± 0.046 (dye: Cy5 (3' terminal)).

With “TTTTTTCATCAGCATGCTGATTTTTTTTTTTTTTTGGTAC [CATGG]”, the background-corrected fluorescence reads like this: (dye: Cy3 (3' terminal)) 0.442 ± 0.016; (dye: Cy5 (3' terminal)) 0.349 ± 0.036.

Turning to “TTTTTTCATCAGCATGCTGCTTTTTTTTTTTTTTTGGTAA [AATGG]”, the background-corrected fluorescence (dye: Cy3 (3' terminal)) was 0.573 ± 0.022 and the background-corrected fluorescence (dye: Cy5 (3' terminal)) came out at 0.458 ± 0.031.

As for “TTTTTTCATCATCAGCAGCATTTTTTTTTTTTTTTGGGTT”, the background-corrected fluorescence runs as follows: (dye: Cy3 (3' terminal)) 0.598 ± 0.011; (dye: Cy5 (3' terminal)) 0.489 ± 0.031.

“TTTTTTCATCATCAGCATCATTTTTTTTTTTTTTTGGGTG [GTGGG]”: the background-corrected fluorescence was 0.627 ± 0.025 (dye: Cy3 (3' terminal)) and 0.428 ± 0.024 (dye: Cy5 (3' terminal)).

Regarding “TTTTTTCATCATCAGCATGATTTTTTTTTTTTTTTGGGTC [CTGGG]”, the background-corrected fluorescence reads like this: (dye: Cy3 (3' terminal)) 0.511 ± 0.03; (dye: Cy5 (3' terminal)) 0.377 ± 0.024.

As for “TTTTTTCATCATCAGCATGCTTTTTTTTTTTTTTTGGGTA [ATGGG]”, the background-corrected fluorescence turned out to be 0.614 ± 0.0069 (dye: Cy3 (3' terminal)) and 0.517 ± 0.03 (dye: Cy5 (3' terminal)).

As to “TTTTTTCATCATCATCAGCATTTTTTTTTTTTTTTGGGGT”, the background-corrected fluorescence (dye: Cy3 (3' terminal)) came out at 0.741 ± 0.023 and the background-corrected fluorescence (dye: Cy5 (3' terminal)) came to 0.626 ± 0.053.

With “TTTTTTCATCATCATCATCATTTTTTTTTTTTTTTGGGGG”, the background-corrected fluorescence came out at 0.709 ± 0.059 (dye: Cy3 (3' terminal)) and 0.635 ± 0.03 (dye: Cy5 (3' terminal)).

Take “TTTTTTCATCATCATCATGATTTTTTTTTTTTTTTGGGGC [CGGGG]”: the background-corrected fluorescence by setting is: (dye: Cy3 (3' terminal)) 0.631 ± 0.03; (dye: Cy5 (3' terminal)) 0.532 ± 0.033.

The values are drawn from the supplement of paper PMC9428881.
